Results from patent US20260234660A1, “TREATMENT OF MUSCLE RELATED DISORDERS WITH ANTI-HUMAN CACNG1 ANTIBODIES” (Regeneron Pharmaceuticals, Inc., priority 2023, published 2026).

Experiments:
human CACNG1 nanodisc = molecular target: T1, human CACNG1 nanodisc (Homo sapiens, UniProt Q06432); assay: Biacore binding kinetics of anti-CACNG1 monoclonal antibodies to human CACNG1 nanodisc, antigen capture format; conditions: 25° C., 1:1 binding model
T1 construct: made in house
Description: Equilibrium dissociation constants (KD values) for nanodisc embedded human CACNG1 expressed with a C-terminal PADRE-Flag-His tag (human CACNG1 nanodisc) binding to purified anti-hCACNG1 antibodies were determined using a real-time surface plasmon resonance biosensor technology with a Biacore T200 instrument. The CM5 Biacore sensor surface was derivatized by amine coupling with a monoclonal mouse anti-His antibody (Cytiva; Marlborough, MA). All Biacore binding studies were performed in a buffer composed of 0.01M HEPES, 0.15M NaCl, 1 mM CaCl2), 0.5 mM MgCl2, pH 7.4 (HBS-N++ running buffer). Different concentrations of anti-hCACNG1 antibodies (ranging from 300 nM to 12 nM in 5-fold serial dilutions) prepared in HBS-N++ running buffer were injected over the captured human CACNG1 nanodisc at a flow rate of 30 μL/minute. Antibody association was monitored for 2 minutes while dissociation was monitored in HBS-N++ running buffer for 5 minutes. At the end of each cycle, the human CACNG1 nanodisc capture surface was regenerated using three 10 second injections of 10 mM Gly pH1.5. All binding kinetics experiments were performed at 25° C.
The specific SPR-Biacore sensorgrams were obtained by a double referencing procedure. The double referencing was performed by first subtracting the signal of each injection over a reference surface (anti-His) from the signal over the experimental surface (anti-His captured human CACNG1 nanodisc) thereby removing contributions from refractive index changes. In addition, running buffer injections were performed to allow subtraction of the signal changes resulting from the dissociation of captured antibodies from the coupled anti-His surface. Kinetic association (ka) and dissociation (kd) rate constants were determined by fitting the real-time sensorgrams to a 1:1 binding model using Scrubber v2.0c curve fitting software. Binding dissociation equilibrium constants (KD) and dissociative half-lives (t1/2) were calculated from the kinetic rate constants as: […]

human myotubes = assay: Acetylcholine-induced calcium flux assay in human myotubes (FLIPR); format: cell-based; conditions: antibody 0.01 μM to 1 μM, 1 hour incubation, 20 uM acetylcholine
Description: CACNG1 is the γ1 subunit of the skeletal muscle specific L-type calcium channel, (dihydropyridine receptor), though genetic deletion of CACNG1 appears to have no major impact on skeletal muscle function. To determine whether antibodies that bind CACNG1 impact muscle function, a calcium flux assay was performed on human myotubes that were incubated with CACNG1 antibodies to determine whether these antibodies affect acetylcholine-induced calcium release.
Human skeletal myoblasts (Cook Myosite, Inc.) were plated at 10,000 cells/well of a 96-well plate and were differentiated for 7 days into myotubes. On the final day of differentiation, media was replaced with 50 μL of FLIPR calcium 5 dye with probenecid (Invitrogen) and 50 uL of assay buffer (0.1% BSA-DMEM) per well. CACNG1 and isotype control antibodies were serial diluted in assay buffer and added to the cells and incubated at 37° C. in a 5% CO2 incubator for 1 hour prior to the calcium flux assay. Nicardipine hydrochloride (Sigma) was added to untreated wells to serve as a control for calcium channel blockade. After 1 hour, acetylcholine (Sigma) was added at a 20 uM final concentration to induce myotube calcium release, and plates were assayed on a FLIPR Tetra (Molecular Devices, LLC).

CACNG1^Hu/Hu myofibers = assay: Antibody binding to single myofibers ex vivo; format: cell-based, mouse; conditions: 100 nM antibody, 30 minutes
Description: (§1) Following confirmation of CACNG1 antibody binding to human myotubes, a subset of antibodies was tested for binding to fully mature myofibers ex vivo. Single myofibers were isolated from either wildtype mice, mice that were homozygous for the deletion of CACNG1 (referred to as CACNG1 knockout mice), or mice that were homozygous for the expression of human CACNG1 in place of mouse CACNG1 (referred to as CACNG1^Hu/Hu). The gastrocnemius muscle was removed, collagenase digested, and single myofibers were isolated, washed, and incubated overnight at 37° C. at 5% C02, in DMEM+10% horse serum. Following overnight incubation, single myofibers were incubated with 100 nM of each CACNG1 antibody or an isotype control antibody for 30 minutes. Myofibers were then washed twice in DMEM+10% horse serum, and subsequently incubated with 10 ug/mL of fluorescent-conjugated secondary antibodies for 30 minutes, washed twice in DMEM+10% horse serum, and then fixed with 4% paraformaldehyde (PFA) for 15 minutes at room temperature. Single fibers were then washed twice with PBS, stained with Hoechst for 5 minutes, washed once more with PBS, then transferred to microscope slides, coverslipped, and imaged using a Zeiss LSM 710 confocal microscope.

[1] = system: wildtype or CACNG1 knockout myofibers; assay: Antibody binding to single myofibers ex vivo; format: cell-based, mouse; conditions: 100 nM antibody, 30 minutes
Description: as §1

T1 sequence (Q06432 whole entry): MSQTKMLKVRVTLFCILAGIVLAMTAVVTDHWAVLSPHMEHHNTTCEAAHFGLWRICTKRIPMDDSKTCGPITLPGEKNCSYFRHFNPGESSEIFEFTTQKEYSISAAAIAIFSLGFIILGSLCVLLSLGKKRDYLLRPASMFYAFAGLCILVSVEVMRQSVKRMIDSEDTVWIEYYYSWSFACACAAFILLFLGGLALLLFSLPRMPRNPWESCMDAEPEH

B1: H2aM31944N: anti-hCACNG1 antibody, HCVR/LCVR SEQ ID NOs: 82/90 (antibody, V domains shown)
VH: QVQLVESGGGVVQPGRSLRLSCEASGITFRNYGMHWVRQAPGKGLEWVAVMWYDGSNKYYADSVKGRFTISRDNSKNTVYLQMNSLRAEDTAVYYCARRGHIATAAPFDYWGQGTLVTVSS
VL: DIQMTQSPSSLSASVGDRVTISCRASQSISSYLNWYQQKPGKAPKVLMYAASSLQSGVPSRFSGSGSGTDFTLTISSLQPEDFATYYCQQSYSTPPITFGQGTRLEIK
ka (human CACNG1 nanodisc): 231000 M⁻¹ s⁻¹ | kd (human CACNG1 nanodisc): 0.00395 s⁻¹ | effect on acetylcholine-induced calcium flux (human myotubes): do not inhibit acetylcholine-induced calcium flux

B2: REGN10716: anti-hCACNG1 antibody, HCVR/LCVR SEQ ID NOs: 50/58, wildtype hIgG1 (antibody, V domains shown)
VH: QVQLQESGPGLVKPSETLSLTCTVSGDSINNYYWTWLRQPPGKGLEWIGYIYYSGSANYNPSLKSRVTISVDTSKNQFSLKLNSVTAADTAVYYCARGAVKYFRHWGQGTLVTVSS
VL: EIVLTQSPGTLSLSPGERATLSCRASQTINHNNLAWYQQRPGQAPRLLIYGASNRATAIPDRFSGSGSGTDFTLTISRLEPEDFEVYSCQQYGSLPLTFGGGTKVEIK
modifications: hIgG1
ka (human CACNG1 nanodisc): 730000 M⁻¹ s⁻¹ | kd (human CACNG1 nanodisc): 8.36e-05 s⁻¹

B3: H2aM31941N: anti-hCACNG1 antibody, HCVR/LCVR SEQ ID NOs: 114/122 (antibody, V domains shown)
VH: QVQLVQSGAEVKKPGASVKVSCKASGYAFTTYGITWVRQAPGQGLEWMGWISAYNGNTNYAEKVQGRFTMTTDTSTNTAYMELRSLRSDDTAVYFCARKGHYGSGTYYNPFGFDFWGQGTMVTVSS
VL: EIMLMQSPGTLSLSPGERATLSCRASQSVSSSYLAWYQQKPGQAPRLLIYGASSRATDIPDRFSGSGSGTDFTLTISRLEPEDFAVYFCQQYYGSPWTFGQGTKVEIK
ka (human CACNG1 nanodisc): 342000 M⁻¹ s⁻¹ | kd (human CACNG1 nanodisc): 0.000406 s⁻¹ | binding to CACNG1^Hu/Hu myofibers ex vivo (CACNG1^Hu/Hu myofibers): demonstrated binding to CACNG1^Hu/Hu myofibers ex vivo | binding to wildtype or CACNG1 knockout myofibers [1]: did not bind to wildtype or CACNG1 knockout myofibers

B4: REGN9909: anti-hCACNG1 antibody, HCVR/LCVR SEQ ID NOs: 146/154 (antibody, V domains shown)
VH: EVQLLESGGGLVQPGGSLRLSCAASGFTFNNYGMSWVRQGPGKGLEWVSSISGSGGTTFYADSVKGRFTISRDNSKNTLYLQMNSLRAEDTAVYYCGKGGYCSSSGCRHYGMDVWGQGTTVTVSS
VL: QSVLTQPPSASGTPGQRVTISCSGSSSNIGNNYIYWYQRLPGTTPKLLIYRNNQRPSGVPDRFSGSKSGTSASLAISGLRSEDEADYYCAAWDDTLSGYVFGTGTKVTVL
ka (human CACNG1 nanodisc): 331000 M⁻¹ s⁻¹ | kd (human CACNG1 nanodisc): 0.00137 s⁻¹

B5: REGN10715: anti-hCACNG1 antibody, HCVR/LCVR SEQ ID NOs: 18/26, wildtype hIgG1 (antibody, V domains shown)
VH: QVQLQQWGAGLLKPSATLSRTCAVYGGSFSGYYWNWIRQSPGKGLEWIGEILHSGRTNYNPSLKSRVTISVDTSKNQFSLKLTSVTAADTAVYYCAGRIAARHGWFDPWGQGTLVTVSS
VL: DIQMTQSPSSVSTSVGDRVTISCRASQDIRKWLAWYQQKPGKAPKLLIYATSSLQSGVPSRFSGSGSGTDFTLTISSLQPEDFATYFCQQANSFPFTFGQGTKLEIK
modifications: hIgG1
ka (human CACNG1 nanodisc): 152000 M⁻¹ s⁻¹ | kd (human CACNG1 nanodisc): 0.000301 s⁻¹

B6: REGN10713: anti-hCACNG1 antibody, HCVR/LCVR SEQ ID NOs: 162/170, wildtype hIgG1 (antibody, V domains shown)
VH: EVQLVESGGNLVQPGGSLRLSCAASGFTFTSHAMNWVRQAPGKGLEWVSVITGRGFDTHYADSVKGRFTISRDISKNTLYLQMNSLRAEDTAVYYCAKGLYDSGNYYIDYWGQGTLVTVSS
VL: QSVLTQPPSVSAAPGQKVTISCSGSSSNIGNNYVSWYQQLPGTAPKLLIYDNNKRPSGIPDRFSGSKSGTSATLGITGLQTGDEADYYCGTWDLSLSFNWVFGGGTKLTVL
modifications: hIgG1
ka (human CACNG1 nanodisc): 74200 M⁻¹ s⁻¹ | kd (human CACNG1 nanodisc): 4.72e-05 s⁻¹

B7: REGN10717: anti-hCACNG1 antibody, HCVR/LCVR SEQ ID NOs: 34/42, wildtype hIgG1 (antibody, V domains shown)
VH: QVQLVESGGGVVQPGRSLRLSCAASGFTFSTYGMHWVRQAPGKGLEWVAVIWHDGSDKYYVDSVKGRFSIARDNSKNTLYLQMNSLRVEDTGIYYCARRGIRGTVFDHWGLGTLVTVSS
VL: DIQMTQSPSTLSASVGDRVTLTCRASQSISNKLAWYQQKPGKAPNLLIYKASNLESGVPSRFSGSGSGTEFTLTISSLQPDDFATYYCQQYNSYSWTFGQGTKVEIK
modifications: hIgG1
ka (human CACNG1 nanodisc): 294000 M⁻¹ s⁻¹ | kd (human CACNG1 nanodisc): 0.0304 s⁻¹

B8: REGN7660: anti-hCACNG1 antibody, HCVR/LCVR SEQ ID NOs: 130/138 (antibody, V domains shown)
VH: EVQLVESGGGLVQPGGSLKLSCTASGLTLSDSAMHWVRQASGKGLEWVGRIRNKANRYATEYAASVKGRFTISRDDSKNTAYLQMNSLKTEDTAVYYCTRNWKIFLFDYWGQGTLVTVSS
VL: EIVLTQSPGTLTLSPGERATLSCRASQSVGSKYLAWFQQKRGQAPRLLIYGASSRTSGIPDRISGSGSGTDFTLTISRLEPEDFAVYYCQQYGSSPWTFGQGTKVEIK
ka (human CACNG1 nanodisc): 1.93e+06 M⁻¹ s⁻¹ | kd (human CACNG1 nanodisc): 0.0243 s⁻¹
